Among the data in patent US20210380678A1 (published 2021) are Kd values, retold here.

The target of assay [1] is T1, Fc portion of human IgG1-fused LGR5-ECD (R&D systems) (UniProt O75473 22-557).
T1 chain: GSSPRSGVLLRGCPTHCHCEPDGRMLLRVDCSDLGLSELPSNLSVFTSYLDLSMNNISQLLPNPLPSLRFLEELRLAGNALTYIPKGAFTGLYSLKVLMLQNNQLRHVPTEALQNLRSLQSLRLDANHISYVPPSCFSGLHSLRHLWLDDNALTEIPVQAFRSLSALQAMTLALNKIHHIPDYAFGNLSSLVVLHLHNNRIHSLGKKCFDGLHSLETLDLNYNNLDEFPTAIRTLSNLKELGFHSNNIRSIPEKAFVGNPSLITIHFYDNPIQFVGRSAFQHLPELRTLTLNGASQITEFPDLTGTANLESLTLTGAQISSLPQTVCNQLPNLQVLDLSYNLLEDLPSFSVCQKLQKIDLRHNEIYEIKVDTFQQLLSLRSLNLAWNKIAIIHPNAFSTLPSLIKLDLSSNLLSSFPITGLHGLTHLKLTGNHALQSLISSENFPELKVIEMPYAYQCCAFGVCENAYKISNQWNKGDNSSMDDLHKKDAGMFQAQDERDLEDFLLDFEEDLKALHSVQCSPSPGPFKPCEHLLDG
The assay is described as follows: BLI steady-state.

Assay [2] concerns the target T2, human RNF43 extracellular domain (hRNF43 ECD) (UniProt Q68DV7 44-197, biotinylated (His-Avi tag)).
T2 chain: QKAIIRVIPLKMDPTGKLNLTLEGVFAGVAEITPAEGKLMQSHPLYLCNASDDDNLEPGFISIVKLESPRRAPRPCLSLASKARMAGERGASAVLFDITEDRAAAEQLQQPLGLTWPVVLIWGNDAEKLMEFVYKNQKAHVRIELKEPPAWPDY
Nature of the assay: BLI; steady-state fit. A general note: BLI is a label-free optical method that tracks binding on a fibre tip over time.

Assay [3] has as its target T3, human ZNRF3 extracellular domain (hZNRF3 ECD) (UniProt Q9ULT6 56-219, biotinylated (His-Avi tag)).
T3 chain: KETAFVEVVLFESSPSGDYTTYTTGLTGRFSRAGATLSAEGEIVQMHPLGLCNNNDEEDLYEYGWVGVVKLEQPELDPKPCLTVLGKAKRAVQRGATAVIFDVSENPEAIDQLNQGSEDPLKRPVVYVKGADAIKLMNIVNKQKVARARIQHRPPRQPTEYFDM
Nature of the assay: BLI; steady-state fit.

Assay [4] addresses T4, human ASGR1 extracellular domain (hASGR1 ECD) (UniProt P07306 62-291, biotinylated (His-Avi tag)).
T4 chain: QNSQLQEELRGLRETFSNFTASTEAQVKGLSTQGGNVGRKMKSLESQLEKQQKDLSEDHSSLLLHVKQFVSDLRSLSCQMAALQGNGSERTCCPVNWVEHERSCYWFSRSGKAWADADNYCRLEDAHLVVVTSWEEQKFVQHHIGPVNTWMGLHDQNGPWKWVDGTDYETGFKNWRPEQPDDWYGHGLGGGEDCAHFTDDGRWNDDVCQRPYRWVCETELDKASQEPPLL
The assay is described as follows: BLI; steady-state fit.

In assay [5] the target is T3, human ZNRF3 extracellular domain …. Nature of the assay: BLI steady-state.
Assay [6] has as its target T2, human RNF43 extracellular domain …. The assay is described as follows: BLI steady-state.
Assay [7] concerns the target T5, human ASGR2 extracellular domain (hASGR2 ECD) (UniProt P07307 86-311, biotinylated (His/Avi tag)).
T5 chain: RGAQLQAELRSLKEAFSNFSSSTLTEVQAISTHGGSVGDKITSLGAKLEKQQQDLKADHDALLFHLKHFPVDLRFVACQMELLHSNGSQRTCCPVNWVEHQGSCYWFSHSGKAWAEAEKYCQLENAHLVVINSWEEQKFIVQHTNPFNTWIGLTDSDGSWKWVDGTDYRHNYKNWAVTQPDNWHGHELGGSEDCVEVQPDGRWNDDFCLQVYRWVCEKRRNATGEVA
The assay is described as follows: BLI.

Assay [8] deals with T4, human ASGR1 extracellular domain …. Nature of the assay: BLI.
Assay [9] shares this target. Nature of the assay: BLI.
For assay [10], the target named is T6, mouse ASGR1 extracellular domain (mASGR1 ECD) (biotinylated (His-Avi tag)).
T6 chain: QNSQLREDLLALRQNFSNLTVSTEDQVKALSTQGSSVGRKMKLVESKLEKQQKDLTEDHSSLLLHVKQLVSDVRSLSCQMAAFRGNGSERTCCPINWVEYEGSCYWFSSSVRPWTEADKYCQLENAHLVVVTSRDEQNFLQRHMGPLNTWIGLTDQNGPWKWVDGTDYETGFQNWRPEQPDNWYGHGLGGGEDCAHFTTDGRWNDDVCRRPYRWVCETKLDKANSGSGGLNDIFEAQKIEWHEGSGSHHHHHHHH
Nature of the assay: BLI.

B1: αTFR1-RSPO2-WT (anti-TFR1, RSPO2 wild type) (other)
chain: QVQLQQSGPELVRPGVSVKISCKGSGYTFTDYAMHWVKQSHAKSLEWIGGISTYFGRTNYNQKFKGRATMTVDKSSSTAYMELARLTSEDSALYYCARGLSGNYVMDYWGQGTSVTVSSGGGGSGGGGSGGGGSDIVLFQSPASLAVSLGQRATISCRASESVDDYGNSFMHWYQQKPGQPPKLLIYRASNLESGIPARFSGSGSRTDFTLTINPVEADDVATYYCQQSNEAPPTFGGGTKLEIRGSGGSNPICKGCLSCSKDNGCSRCQQKLFFFLRREGMRQYGECLHSCPSGYYGHRAPDMNRCARCRIENCDSCFSKDFCTKCKVGFYLHRGRCFDECPDGFAPLEETMECVEGGDYKDDDDKGSHHHHHHHH
One may read the Kd as the equilibrium constant for the complex coming apart. High values mean weaker binding, low ones tighter binding. As for B1, the figures for the Kd in assay [1], in [2] and in assay [3] were 5 nM, 44 nM and 72 nM, respectively.

B2: αTFR1-RSPO2-RA (anti-TFR1, RSPO2 (F105R/F109A)) (other)
chain: QVQLQQSGPELVRPGVSVKISCKGSGYTFTDYAMHWVKQSHAKSLEWIGGISTYFGRTNYNQKFKGRATMTVDKSSSTAYMELARLTSEDSALYYCARGLSGNYVMDYWGQGTSVTVSSGGGGSGGGGSGGGGSDIVLFQSPASLAVSLGQRATISCRASESVDDYGNSFMHWYQQKPGQPPKLLIYRASNLESGIPARFSGSGSRTDFTLTINPVEADDVATYYCQQSNEAPPTFGGGTKLEIRGSGGSNPICKGCLSCSKDNGCSRCQQKLFFFLRREGMRQYGECLHSCPSGYYGHRAPDMNRCARCRIENCDSCRSKDACTKCKVGFYLHRGRCFDECPDGFAPLEETMECVEGGDYKDDDDKGSHHHHHHHH
With B2, the figures for the Kd in assay [2] and in assay [3] were 45 nM and 75 nM, respectively.

B3: 024S-E03 Fab (Fab, V domains shown)
VH: QVQLQQSGPGLVKPSQTLSLTCAISGASVSSNSAAWNWIRQSPSRGLEWLGRTYYRSKWYNDYAVSVKSRITINPDTSKNQFSLQLNSVTPGDTAVYYCARWNHEEHYFDYWGQGTLVTVSS
VL: DVVMTQSPATLSFSPGERATLSCRASQSVGSYLAWYQQRPGQAPRPLIYDATNRATGIPTRFSGSGSGTDFTLTISSLEPEDFATYYCQHRRTFGRGTKLEIK
Regarding B3, in assay [4], the Kd came out at 180 nM.

B4: 024S-D03 Fab (Fab, V domains shown)
VH: QVQLQQSGPGLVKPSQTLSLTCAISGDSVSSNSAAWNWMRQSPSRGLEWLGRTYYRSKWYNDYAVSVKSRMTINPDTSRNQFSLQLNSVTLEDTAVYYCARWNHEEHYFDYWGQGTLVTVSS
VL: EIVLTQSPATLSFSPGERATLSCRASQSVGSYLAWYQQRPGQAPRPLIYDATNRATGIPTRFSGSGSGTDFTLTISSLEPEDFATYYCQHRRTFGRGTKLEIK
B4 registered a Kd in assay [4] of 130 nM.

B5: 024S-A04 Fab (Fab, V domains shown)
VH: QVQLQQSGPGLVKPSQTLSLTCAISGDSVSSNSVAWNWMRQSPSRGLEWLGRTYYRSKWYYDYAVSVKSRITINPDTSKNQFSLQLNSVTPEDTAVYYCASWTRGAFDIWGQGTMVTVSS
VL: DIQLTQSPATLSFSPGERATLSCRASQSVGSYLAWYQQRPGQAPRPLIYDATNRATGIPTRFSGSGSGTDFTLTISSLEPEDFATYYCQHRRTFGRGTKLEIK
For B5, the affinity in assay [4], expressed as Kd, was 100 nM.

B6: αGFP-RSPO2-RA (anti-GFP, RSPO2 (F105R/F109A)) (other)
chain: QVQLVESGGGLVQPGGSLRLSCAASGFTFSRYGMHWVRQAPGKGLEWVSGISSIGSNTYYADSVKGRFTISRDNSKNTLYLQMNSLRAEDTAVYYCARWYKTYIDVWGQGTLVTVSSGGGGSGGGGSGGGGSDIELTQPPSVSVAPGQTARISCSGDNLGKKYVYWYQQKPGQAPVLVIYGDDERPSGIPERFSGSNSGNTATLTISGTQAEDEADYYCASYDSSHILIVFGGGTKLTVLGSGGSNPICKGCLSCSKDNGCSRCQQKLFFFLRREGMRQYGECLHSCPSGYYGHRAPDMNRCARCRIENCDSCRSKDACTKCKVGFYLHRGRCFDECPDGFAPLEETMECVEGGDYKDDDDKGSHHHHHHHH
B6: the figures for the Kd in assay [5] and in [6] were 170 nM and 31 nM, respectively.

B7: αGFP-RSPO2-WT (anti-GFP, RSPO2 wild type) (other)
chain: QVQLVESGGGLVQPGGSLRLSCAASGFTFSRYGMHWVRQAPGKGLEWVSGISSIGSNTYYADSVKGRFTISRDNSKNTLYLQMNSLRAEDTAVYYCARWYKTYIDVWGQGTLVTVSSGGGGSGGGGSGGGGSDIELTQPPSVSVAPGQTARISCSGDNLGKKYVYWYQQKPGQAPVLVIYGDDERPSGIPERFSGSNSGNTATLTISGTQAEDEADYYCASYDSSHILIVFGGGTKLTVLGSGGSNPICKGCLSCSKDNGCSRCQQKLFFFLRREGMRQYGECLHSCPSGYYGHRAPDMNRCARCRIENCDSCFSKDFCTKCKVGFYLHRGRCFDECPDGFAPLEETMECVEGGDYKDDDDKGSHHHHHHHH
For B7, the values for the Kd in assay [5] and in assay [6] were 160 nM and 42 nM, respectively.

B8: Abv-10B8 Fab (Fab, V domains shown)
VH: DVKLVESGEGLVKPGGSLKLSCAASGFTFSSYAMSWVRQTPEKRLEWVAYISSGGDYIYYVDTVKGRFTISRDNARNTLYLQMSSLKSEDTAVYYCTREGTGGMDYWGQGTSVTVSS
VL: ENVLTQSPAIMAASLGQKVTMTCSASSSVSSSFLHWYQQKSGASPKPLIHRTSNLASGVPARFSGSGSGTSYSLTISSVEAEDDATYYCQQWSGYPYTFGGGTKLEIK
In turn, B8 had a Kd in [7] of 230 nM.

B9: LP1-8M24 Fab (Fab, V domains shown)
VH: QVQLQQSGAELARPGASVKLSCKASGYTFTNYGINWVKQRTGQGLEWIGEIFPRSDNTFYNEKFKGKATLTADKSSTTAYMELRSLTSEDSAVYFCARKGRDYGTSHYFDYWGQGTTLTVSS
VL: DIQMTQSPASLSVSVGETVTITCRISENIYSNLAWYQQKQGKSPHLLVYAAINLADGVPSRFSGSGSGTQFSLKINSLQSEDFGSYYCQHFWGTPFTFGSGTKLEIK
With B9, in [8], binding was put at a Kd of 0.17 nM.

B10: LP1-2I13 Fab (Fab, V domains shown)
VH: EVQLVESGGGLVKPGGSRKLSCAASGFTFSDYGMHWVRQAPEKGLEWVAYISSGSSTIYYADTVKGRFTISRDNAKNTLFLQMTSLRSEDTAMYYCSRKGGFGDYEKSYAMDYWGQGTSVTVSS
VL: DIQMTQSPASLSASVGETVTITCRASENIYSYLVWYQQKQGKSPQLLVYNAKTLAEGVPSRFSGSGSGTQFSLKINSLQPEDFGSYYCQHHYGTWTFGGGIKLEIK
Turning to B10, in assay [8], the Kd came to 7.3 nM.

B11: anti-ASGR1 Fab (Fab, V domains shown)
VH: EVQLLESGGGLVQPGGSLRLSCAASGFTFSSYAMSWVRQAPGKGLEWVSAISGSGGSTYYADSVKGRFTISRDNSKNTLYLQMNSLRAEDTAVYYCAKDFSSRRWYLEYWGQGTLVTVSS
VL: DIELTQDPAVSVALGQTVRITCQGDSLRSYYASWYQQKPGQAPVLVIYGKNNRPSGIPDRFSGSSSGNTASLTITGAQAEDEADYYCNSLERIGYLSYVFGGGTKLTVLG
In the case of B11, the dissociation constant (Kd) was 349 nM in assay [9] and 213 nM in assay [10].

B12: Abv-3D11 Fab (Fab, V domains shown)
VH: EVQLVESGGGLVQPKGSLKLSCAASGFSFNTYAMNWVRQAPGKGLEWVARIRSKSNNYATYYADSVKDRFTISRDDSESMLYLQMNNLKTEDTAMYYCVRPRYDYWYFDVWGTGTTVTVSS
VL: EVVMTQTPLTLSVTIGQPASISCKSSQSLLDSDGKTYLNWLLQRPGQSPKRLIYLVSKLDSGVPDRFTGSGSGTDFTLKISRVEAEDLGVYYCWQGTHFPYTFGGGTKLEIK
With B12, the Kd in assay [7] worked out at 110 nM.
